Results reported in patent US20240247080A1, “GLP1/GIP/NPY2 RECEPTOR TRIPLE AGONISTS” (Boehringer Ingelheim International GmbH, priority 2022, published 2024).
Positions count from the first letter of the chain named. Starred links: 1 amine or outer side, 2 acyl side, 3 side chain; linkers in the order of their positions; H or OH if unused. Non-standard residues stand in square brackets, D forms with d. Groups on a side chain read outwards from the residue. No end group written: not given here. *: point of attachment. C20 diacid = O=C(O)CCCCCCCCCCCCCCCCCCC(=O)*; γGlu = O=C(O)[C@H](CCC(=O)[*:2])N[*:1]; εLys = N[C@@H](CCCCN[*:1])C(=O)[*:2]; AEEA = NCCOCCOCC(=O)O; Aib = CC(C)(N)C(=O)O

B1: Compound 70 (peptide)
peptide: Y[Aib]EGTFTSDYSI[Aib]LEKQAQ[Aib]AFVEWLIK([εLys-γGlu-γGlu-γGlu-γGlu-γGlu-C20 diacid])GGPESPASLRHYYNWLTRQRY-NH2
modifications: also: TFA salt
B2: Compound 77 (peptide)
peptide: Y[Aib]EGTFTSDYSI[Aib]LEKQAQ[Aib]AFVQWLIK([AEEA-AEEA-γGlu-γGlu-γGlu-γGlu-C20 diacid])GGPEEPASLRHYYNWLTRQRY-NH2
modifications: also: TFA salt
B3: Compound 71 (peptide)
peptide: YXEGTFTSDYSIXLEKQAQXAFVEWLIKGGPSSGASLRHYYNWLTXQRY
modifications: Aib at 2, 13, 20; hArg 46; DTyr 49; K28 side chain: C20DA-gGlu-gGlu-gGlu-gGlu-gGlu-gGlu-eLys; C-terminal NH2
B4: Compound 9 (peptide)
peptide: B3 peptide with G34Y, A35V, L37I, X46R
modifications: Aib at 2, 13, 20; K28 side chain: C20DA-gGlu-gGlu-gGlu-gGlu-gGlu-gGlu-eLys; C-terminal NH2
B5: Compound 76 (peptide)
peptide: B3 peptide with L37X, Y41X, X46R
modifications: Aib at 2, 13, 20, 37, 41; K28 side chain: C20DA-gGlu-gGlu-Glu-gGlu-gGlu-gGlu-eLys; C-terminal NH2
B6: Compound 72 (peptide)
peptide: B3 peptide with S36D, Y41L, X46R
modifications: Aib at 2, 13, 20; K28 side chain: C20DA-gGlu-gGlu-gGlu-gGlu-gGlu-gGlu-eLys; C-terminal NH2
B7: Compound 74 (peptide)
peptide: B3 peptide with L37X, X46R
modifications: Aib at 2, 13, 20, 37; DTyr 49; K28 side chain: C20DA-gGlu-gGlu-gGlu-gGlu-gGlu-gGlu-eLys; C-terminal NH2
B8: Compound 73 (peptide)
peptide: B3 peptide with G34P, A35E, X46R
modifications: Aib at 2, 13, 20; K28 side chain: C20DA-gGlu-gGlu-gGlu-gGlu-gGlu-gGlu-eLys; C-terminal NH2
B9: Compound 78 (peptide)
peptide: B3 peptide with E24Q, S33E, G34Y, A35V, X46R
modifications: Aib at 2, 13, 20; K28 side chain: C20DA-gGlu-gGlu-gGlu-gGlu-gGlu-gGlu-eLys; C-terminal NH2
B10: Compound 75 (peptide)
peptide: Y[Aib]EGTFTSDYSI[Aib]LEKQAQ[Aib]AFVEWLIK([εLys-Glu-γGlu-γGlu-γGlu-γGlu-C20 diacid])GGPSYYVSLRHYYNWLTRQRY-NH2
modifications: also: TFA salt

Biological target: human GLP-1 receptor (human, UniProt P43220 24-463)
Experiment: cell-based or functional assay

B1 and B2 are within 1.5-fold of each other in “EC50, CreLuc assay, 0.5% hP” value: 0.3 nM for the first, 0.24 nM for the second.

First: B3
Second: B4
The “EC50, CreLuc assay, 0.5% hP” value of the first is 3.3-fold lower: 0.14 nM for the first, 0.46 nM for the second.

B5 and B6 are within 1.5-fold of each other in “EC50, CreLuc assay, 0.5% hP” value: 0.1 nM for the first, 0.15 nM for the second.

First: B7
Second: B8
The “EC50, CreLuc assay, 0.5% hP” value of the first is 2.4-fold lower: 0.08 nM for the first, 0.19 nM for the second.

Going from B9 to B10, the “EC50, CreLuc assay, 0.5% hP” value falls from 0.64 nM to 0.35 nM (1.8-fold).

B1 and B2 are within 1.5-fold of each other in “EC50, CreLuc assay, 100% hP” value: 22.2 nM for the first, 16.2 nM for the second.

First: B3
Second: B4
The “EC50, CreLuc assay, 100% hP” value of the first is 5.9-fold lower: 1.13 nM for the first, 6.64 nM for the second.

Compared with B5, B6 is 1.5-fold higher in “EC50, CreLuc assay, 100% hP” value: 1.91 nM for the first, 2.87 nM for the second.

Compared with B7, B8 is 4.2-fold higher in “EC50, CreLuc assay, 100% hP” value: 1.13 nM for the first, 4.76 nM for the second.

Going from B9 to B10, the “EC50, CreLuc assay, 100% hP” value rises from 12.2 nM to 23.9 nM (2-fold).

Biological target: T1, human GIP receptor (human, UniProt P48546 22-466)
T1 sequence (looked up): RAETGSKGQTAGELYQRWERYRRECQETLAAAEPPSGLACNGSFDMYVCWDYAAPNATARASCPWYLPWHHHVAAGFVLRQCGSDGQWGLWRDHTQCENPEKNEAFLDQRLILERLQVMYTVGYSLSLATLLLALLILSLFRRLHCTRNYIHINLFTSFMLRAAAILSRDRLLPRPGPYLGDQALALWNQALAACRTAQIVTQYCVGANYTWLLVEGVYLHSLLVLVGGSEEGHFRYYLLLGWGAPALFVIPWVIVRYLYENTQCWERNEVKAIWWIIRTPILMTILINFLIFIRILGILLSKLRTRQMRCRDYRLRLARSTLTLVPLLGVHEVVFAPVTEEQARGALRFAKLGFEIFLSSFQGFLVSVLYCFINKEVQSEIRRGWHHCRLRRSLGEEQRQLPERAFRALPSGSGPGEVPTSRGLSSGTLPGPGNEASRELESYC
Experiment: cell-based or functional assay

B1 and B2 are within 1.5-fold of each other in “EC50, CreLuc assay, 0.5% hP” value: 0.28 nM for the first, 0.32 nM for the second.

Going from B3 to B4, the “EC50, CreLuc assay, 0.5% hP” value rises from 0.13 nM to 0.21 nM (1.6-fold).

B5 and B6 are within 1.5-fold of each other in “EC50, CreLuc assay, 0.5% hP” value: 0.2 nM for the first, 0.29 nM for the second.

B7 and B8 are within 1.5-fold of each other in “EC50, CreLuc assay, 0.5% hP” value: 0.1 nM for the first, 0.11 nM for the second.

B9 and B10 are within 1.5-fold of each other in “EC50, CreLuc assay, 0.5% hP” value: 0.53 nM for the first, 0.54 nM for the second.

B1 and B2 are within 1.5-fold of each other in “EC50, CreLuc assay, 100% hP” value: 2.62 nM for the first, 2.16 nM for the second.

First: B3
Second: B4
The “EC50, CreLuc assay, 100% hP” value of the first is 3.2-fold lower: 0.64 nM for the first, 2.03 nM for the second.

First: B5
Second: B6
The “EC50, CreLuc assay, 100% hP” value of the first is 1.5-fold lower: 1.39 nM for the first, 2.12 nM for the second.

Compared with B7, B8 is 2.6-fold higher in “EC50, CreLuc assay, 100% hP” value: 0.62 nM for the first, 1.61 nM for the second.

Going from B9 to B10, the “EC50, CreLuc assay, 100% hP” value rises from 6.64 nM to 12.4 nM (1.9-fold).

Biological target: T2, human neuropeptide Y2 (NPY2) receptor (human, UniProt P49146 1-381)
T2 sequence (looked up): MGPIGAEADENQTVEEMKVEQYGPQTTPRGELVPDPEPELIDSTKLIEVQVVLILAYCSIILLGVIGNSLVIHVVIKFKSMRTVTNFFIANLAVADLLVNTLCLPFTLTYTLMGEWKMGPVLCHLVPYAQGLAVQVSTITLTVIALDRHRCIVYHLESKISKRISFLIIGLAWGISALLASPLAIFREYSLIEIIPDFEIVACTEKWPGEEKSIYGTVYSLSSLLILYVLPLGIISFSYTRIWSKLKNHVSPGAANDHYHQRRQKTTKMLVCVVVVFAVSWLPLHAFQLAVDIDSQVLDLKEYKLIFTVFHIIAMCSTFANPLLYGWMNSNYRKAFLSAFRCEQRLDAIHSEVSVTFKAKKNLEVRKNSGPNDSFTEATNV
Experiment: cell-based or functional assay

B1 and B2 are within 1.5-fold of each other in “EC50, CreLuc assay, 0.5% hP” value: 16.2 nM for the first, 13.7 nM for the second.

Going from B3 to B4, the “EC50, CreLuc assay, 0.5% hP” value falls from greater than 100 nM to 15.2 nM.

B5 and B6 are within 1.5-fold of each other in “EC50, CreLuc assay, 0.5% hP” value: 31.5 nM for the first, 29.1 nM for the second.

Going from B7 to B8, the “EC50, CreLuc assay, 0.5% hP” value falls from 53.4 nM to 32.2 nM (1.7-fold).

Going from B9 to B10, the “EC50, CreLuc assay, 0.5% hP” value falls from 12.9 nM to 7.12 nM (1.8-fold).

B1 and B2 are within 1.5-fold of each other in “EC50, CreLuc assay, 100% hP” value: 67.2 nM for the first, 46.3 nM for the second.

Compared with B3, B4 is lower in “EC50, CreLuc assay, 100% hP” value: greater than 1000 nM for the first, 18.9 nM for the second.

B5 and B6 are within 1.5-fold of each other in “EC50, CreLuc assay, 100% hP” value: 158 nM for the first, 149 nM for the second.

B7 and B8 are within 1.5-fold of each other in “EC50, CreLuc assay, 100% hP” value: 110 nM for the first, 107 nM for the second.

B9 and B10 are within 1.5-fold of each other in “EC50, CreLuc assay, 100% hP” value: 24.6 nM for the first, 33.5 nM for the second.
